Here are results for two molecules from US20230399394A1 (SUNSHINE GUOJIAN PHARMACEUTICAL SHANGHAI, published 2023).

Assay [1] concerns the target T1, Human IL-33-his (human, UniProt O95760 112-270, biotinylated with EZ-Link NHS-Biotin where used as IL-33-his-biotin).
T1 construct: Used plain (SPR, cell assays) and biotinylated (ELISA); also called IL-33-his-biotin
T1 sequence: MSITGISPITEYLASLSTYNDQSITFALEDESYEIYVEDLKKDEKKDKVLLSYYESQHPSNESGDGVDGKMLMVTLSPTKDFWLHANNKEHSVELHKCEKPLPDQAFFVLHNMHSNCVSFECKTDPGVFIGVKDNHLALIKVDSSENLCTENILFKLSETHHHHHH
Description: SPR Biacore 8K as Example 14, antibody captured, antigen as analyte. How it is done: (§1) A chip with covalently coupled Protein A/G (purchased from GE Healthcare, catalog number BR-1005-30) was used to capture each antibody to be tested, and the relevant operating parameters were as follows: The antibody concentration was […], the contact time was 75 s, the flow rate was […], and the regeneration contact time was 30 s. The IL-33-his antigen was diluted with HBS-EP pH7.4 buffer solution (purchased from GE Healthcare, catalog number BR-1006-69). The maximum concentration was 50 nM, and diluted to 0.39 nM by two-fold dilution. Duplicate wells and 0 concentration point well were set, and 6M guanidine hydrochloride solution was used as the regeneration buffer. The sample was injected on Biacore 8K according to the following parameters, the binding time was 180 s, the dissociation time was 900 s, the flow rate was 30 μL/min, and the regeneration contact time was 30 s. After running, Biacore 8K Evaluation Software was used to analyze the data according to the “1:1 binding kinetics model”, and the binding kinetics parameters of each antibody to IL-33 were obtained.
(§2) The experimental methods were referred to Example 14, in which the antigens cynomolgus IL-33 protein (purchased from Sino catalog number 90912-CNAE) and mouse IL-33 protein (purchased from R&D, 3626-ML-010/CF) were used, and human IL-33 protein was used as the control. Both 864F3-Hu4 and 874F7-Hu1 cross-react with cynomolgus IL-33 protein, and are consistent with the characteristics of each antibody binding to human IL-33 protein.
In general terms: Surface plasmon resonance follows binding to a sensor surface in real time, without labels.

A further assay deals with T2, Cynomolgus IL-33-his (cynomolgus, UniProt A0A2K5W3I1 112-269, biotinylated in the ELISA of Example 6).
T2 construct: Bought protein; also called cynomolgus IL-33 protein; Cynomolgus monkeys IL-33
T2 sequence: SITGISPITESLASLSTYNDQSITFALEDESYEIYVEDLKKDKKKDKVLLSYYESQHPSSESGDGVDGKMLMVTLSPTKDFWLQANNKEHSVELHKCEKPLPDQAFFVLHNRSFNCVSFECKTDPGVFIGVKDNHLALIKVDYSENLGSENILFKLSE
Described as above. The protocol:
as §1, §2

A further assay addresses T3, Mouse IL-33 protein (mouse, UniProt Q8BVZ5 109-266).
T3 construct: Bought protein
T3 sequence (looked up): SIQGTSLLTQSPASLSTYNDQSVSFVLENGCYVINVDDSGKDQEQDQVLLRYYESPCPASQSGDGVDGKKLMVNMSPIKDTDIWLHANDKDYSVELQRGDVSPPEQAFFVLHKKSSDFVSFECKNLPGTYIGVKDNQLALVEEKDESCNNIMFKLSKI
The description is as above. The protocol:
as §1, §2

Assay [2] concerns the target T1, Human IL-33-his. The experiment in a line: competition ELISA as Example 10, ST2-Fc on plate; competitor ST2-Fc. How it is done: (§3) ST2-Fc protein was diluted to 1 μg/mL with ELISA coating solution to coat ELISA plate with 100 μL/well. The plate was placed in a wet box at 4° C. for 16 h for coating. The ELISA plate was washed 3 times with PBST, and then was blocked with 2% BSA prepared in PBS at 200 μL/well at room temperature for 2 h. The plate was washed once with PBST, and was patted dry to remove the excess blocking solution. Each monoclonal antibody was diluted with 1% BSA prepared in PBST in a 3-fold gradient. The highest concentration of antibody was 10 μg/mL, and the antibody was diluted for 11 gradients. The diluted antibody was mixed 1:1 with 10 ng/ml IL-33-his-biotin, and then the mixture was added into the ELISA well at 100 μL/well. The plate was incubated at room temperature for 1 h. Each concentration was added to duplicate wells in parallel (maximum final concentration of antibody was […], final concentration of IL-33-his-biotin was 5 ng/mL). Unbound or non-specifically bound primary antibodies were washed out. According to the instructions of the antibody, HRP labeled streptavidin secondary antibody was diluted to an appropriate concentration with antibody diluent solution, then it was added to ELISA plate with 100 μL/well, and was incubated at room temperature for 1 h. The ELISA plate was washed with PBST for 5 times, and was patted dry on absorbent paper to remove excess liquid. TMB developing solution was added with 100 μL/well for development to an appropriate degree. 2M H₂SO₄ was added with 70 μL/well to terminate development, and the absorbance was measured at 450 nm on a multifunctional microplate reader. The data were analyzed.
The blocking effect of the above humanized antibodies on the binding of IL-33 to its receptor ST2 was determined by the ELISA method, and the relevant experimental methods were referred to Example 10.

Assay [3] addresses T1, Human IL-33-his. The experiment in a line: SPR Biacore 8K as Example 14, antibody captured, antigen as analyte; human IL-33 as the control in the cross-reactivity run of Table 3. The protocol:
as §1
The experimental methods were referred to Example 14, in which the antigens cynomolgus IL-33 protein (purchased from Sino catalog number 90912-CNAE) and mouse IL-33 protein (purchased from R&D, 3626-ML-010/CF) were used, and human IL-33 protein was used as the control. […]

The target in assay [4] is T1, Human IL-33-his. Description: cell-based or functional assay.
Assay [5] addresses T1, Human IL-33-his. Description: SPR Biacore 8K, antibody captured on Protein A/G chip, IL-33-his as analyte, 1:1 model. How it is done:
as §1

The target of assay [6] is T1, Human IL-33-his. The experiment in a line: ELISA as Example 9, IL-33-his-biotin on streptavidin plate. On the technique in general: In an ELISA, binding on a coated surface is turned into a signal by an enzyme label.
Assay [7] deals with T1, Human IL-33-his. Description: ELISA, IL-33-his-biotin on streptavidin plate, anti-human Fc detection. How it is done: (§4) SA protein was diluted to 2 μg/mL to coat ELISA plate at 100 μL/well overnight at 4° C. The plate was washed with PBST (PBS containing 0.05% Tween20) for 3 times, and blocked with 2% BSA prepared in PBS at 200 μL/well, at room temperature for 2 h. After the plate was washed twice with PBST, IL-33-his-biotin protein was diluted to 1 μg/mL with 1% BSA prepared in PBST, and was added to ELISA plate at 100 μL/well. The plate was incubated at room temperature for 1 h, and each monoclonal antibody was diluted with 1% BSA prepared in PBST in a 3-fold gradient. The highest concentration of antibody was 10 μg/mL, and the antibody was diluted for 12 gradients. Each diluted monoclonal antibody was added to ELISA wells with 100 μL/well, and the plate was incubated at room temperature for 1 h. Each sample was added to duplicate wells in parallel. The plate was washed with PBST for 3 times, and HRP-anti human IgG Fc secondary antibody prepared with PBST was diluted at an appropriate ratio, and was added to ELISA wells at 100 μL/well. The plate was incubated at room temperature for 1 h. After washing with PBST for 3 times, TMB developing solution was added at 100 μL/well. When the development met expectations, 2M H₂SO₄ was added to terminate the chromogenic reaction at 70 μL/well. Each reaction solution was shaken uniformly and OD450 nm was read on a microplate reader. The data was analyzed and EC₅₀ was calculated.

In assay [8] the target is T1, Human IL-33-his. The experiment in a line: ELISA as Example 9, IL-33-his-biotin on streptavidin plate; run with HuG, Hu1, Hu2. The protocol: as §4, with “When the development met expectations, 2M H₂SO₄ was added to terminate the chromogenic reaction at 70 μL/well.” left out
Assay [9] concerns the target T1, Human IL-33-his. Description: ELISA as Example 9, IL-33-his-biotin on streptavidin plate; run with Hu3, Hu4, Hu5. The protocol: as §4, with “When the development met expectations, 2M H₂SO₄ was added to terminate the chromogenic reaction at 70 μL/well.” left out
The target in assay [10] is T1, Human IL-33-his. The experiment in a line: competition ELISA, antibody mixed with IL-33-his-biotin, ST2-Fc on plate; competitor ST2-Fc. How it is done:
as §3

Usually koff stands for the first-order rate constant of dissociation. Low values mean slow dissociation, high ones fast dissociation. For orientation: kon means the rate constant with which the complex forms. Low readings indicate slower complex formation, high ones faster complex formation. What is called Kd is the constant that tells how readily two partners part at equilibrium. Read a high Kd as weaker binding. In general, IC50 refers to the point on the concentration scale where inhibition reaches its midpoint. Read a low IC50 as greater potency. By EC50 is commonly meant the concentration that produces a half-maximal response. The low end stands for an effect from little substance, the high end for a need for much substance.

B1: 864F3-Hu4 (antibody, human IgG4 S228P, kappa, V domains shown)
VH: QVQLQESGPGLVKPSETLSLTCTVSGFSLSKYGVHWIRQPPGKGLEWIGVLRAGGTISYNSALMSRVTISEDISKSQVSLKLSSVTAADTAVYYCARDHYYYSSFGGFASWGQGTLVTVSS
VL: DIQMTQSPSSLSASVGDRVTITCLASQTIATWLAWYQQKPGKSPKLLIYAATRLADGVPSRFSGSGSGTDFTLTISSLQPEDFATYYCQQLYNTPYTFGQGTKVEIKR
notes: Humanized; also called humanized antibody 864F3-Hu4
In the assay with Human IL-33-his [1], B1 had a koff of 0.000149 s⁻¹ and an on-rate constant (kon) of 270000 M⁻¹ s⁻¹. In the assay with Cynomolgus IL-33-his, this molecule yielded a Kd of 637 pM, a koff of 0.000245 s⁻¹ and a kon of 385000 M⁻¹ s⁻¹. Further, in the assay with Mouse IL-33 protein, the Kd amounted to 190000 pM, the koff is 0.0205 s⁻¹ and the kon was 108000 M⁻¹ s⁻¹. The same molecule registered an IC50 with Human IL-33-his [2] of 512 pM. Also, the Kd with Human IL-33-his [3] was 552 pM. For the same molecule, in the assay with Human IL-33-his [4], the “IC50 of inhibition of IFNγ secretion by NK cells induced by IL-33” value is 904 pM, the “IC50 of inhibition of IL-5 secretion of KU812 cells induced by IL-33” value worked out at 27600 pM, the “IC50 of inhibition of IL-13 secretion of KU812 cells induced by IL-33” value was determined as 14700 pM and the “IC50 of the inhibitory effect on IL-6 expression in HUVEC cells induced by IL-33” value turned out to be 73 pM. In the assay with Human IL-33-his [4], the “IC50 of the inhibitory effect on the IFN-γ secretion of PBMC induced by IL-33” value was determined as 1220 pM. For the same molecule, in the assay with Human IL-33-his [5], the affinity, expressed as Kd, was 1380 pM; the koff was found to be 0.000447 s⁻¹; the kon came to 323000 M⁻¹ s⁻¹. In the assay with Human IL-33-his [6], this molecule came in with an EC50 of 135 pM.

B2: 864F3-ch2 (antibody, human IgG4 S228P, kappa, V domains shown)
VH: QVHLKESGPGLVAPSQSLSITCNVSGFSLSKYGVHWIRQTPGRGLDWLGVLRAGGTISYNSALMSRLSISEDISKSQVFLKMNDLQTDDSAIYFCARDHYYYSSFGGFASWGQGTLVTVSA
VL: DIQMTQSPASQSASLGESVTITCLASQTIATWLAWYQQKPGKSPQLLIYAATRLADGVPSRFSGSGSGTEFSFKISSLQAEDFVIYYCQQLYNTPYTFGGGTKLEIKR
notes: Chimeric: human IgG4 (S228P) and human kappa constant regions; also called chimeric antibody 864F3-ch2
For the molecule B2, the EC50 came out at 173 pM with Human IL-33-his [7], 169 pM in the assay with Human IL-33-his [8] and 124 pM with Human IL-33-his [9]. For the same molecule, in the assay with Human IL-33-his [10], the concentration for half-maximal inhibition (IC50) is 580 pM.
